# Results as given in the DeepSol protein solubility set.
# Experiment: soluble on expression in E. coli; label from the status in PepcDB or PDB records
row,Sequence,soluble on expression in E. coli
1,FQRSTPAITLESPDIKYPLRLIDREIISHDTRRFRFALPSPQHILGLPVGQHIYLSARIDGNLVVRPYTPISSDDDKGFVDLVIKVYFKDTHPKFPAGGKMSQYLESMQIGDTIEFRGPSGLLVYQGKGKFAIRPDKKSNPIIRTVKSVGMIAGGTGITPMLQVIRAIMKDPDDHTVCHLLFANQTEKDILLRPELEELRNKHSARFKLWYTLDRAPEAWDYGQGFVNEEMIRDHLPPPEEEPLVLMCGPPPMIQYACLPNLDHVGHPTERCFVF,soluble
2,MQDLLTLRFLDTYDNILFIGNSGVGKTHLAVSIGLECIDRGLSCLFITSTELVNRLIRAHKRGTSETMLKKYSGYSVLIIDEVGYLPFSKEGSNLLFQLINMRYERKSTIVTTNIPLSQWSEIFGNKKLTNALLDRLVHHSKLIQITGPSYRMKSYSENKEVKSLEHHHHHH,soluble
3,MAHHHHHHMPDGQQQSAKCATQVQNGEEATRNTYPRRDDTKLHVGLDYSSFYLDTPYKIIKCMNKGSHFLYWGSDTLCGQSDQVTKEFKMNEMKKNNCEELRNSRFIFFDSQKKLLVLRYNIRKNSFNYVSDSDPIYVYFYQLHEKNFLDDNIIKENKNSLLIYPYTYVKIWESLTCYINEEVINKIEPVNKTFCSSFLEEEVEEEKKKKKGGTDLRREEEMNLCNQPYMFYSVIPRYPASKTYPKEGRVSGGSRHKKEDNVGVITAEGDGASSINMGGDGSGGINTEGDGSGGAGGINMEGDHPVDPDEPPNDHLDGA,not soluble
4,MGSDKIHHHHHHMNYKTSIADNVTEKEISEKLGISLSTVKRSVSRLKNNKNLIDKVISNNVIAEGSYKTYNKYHVAKCNEDFFYIYNSFFNDDMNIAKASERIKIKNFLLKLKAICKKETNKYISESPYMDGLNKAELSKKLGIIDTKTLNKYLEMAVNAGQIKYITNGLLILNKSIIPDFKKDDTDTRIYHIIYDWCIDNDVVPPDRNDEIKIMEDGSVRRKNSLLLEIAGKLGYMKDEEIRSLLTNRITSEEITLEYIAKVLNIKNKKKKEEIEWPPIIMLD,not soluble
5,MSLRAYIPIDKYSLPEKFEIPLGNTNYIFEVDYNQTEKFFTVDLYDIDHTPIAIGERMVIDERLWQDIVDTRLPSADLVPMDESGASKEITFENFGIQVFLYIDDLPPNYNVPSLEREDN,not soluble
6,MSSFGHRAFFSCCLLLEGETLHSIKLRKEATYQPQSGWPVRWPIRYPRALPLASHVHPYHMIVKLPHPRTQPRLFLWLSLHWTGIPFLGKPGIGRNRVKSKQFSHFQQSKIKTTMRKKTTNRKQKAERCQYRLVTA,not soluble
7,MAHHHHHHMQQSLKNQEHIWAVLQKMRMEMNECFAEHERMLRQAHGQLKERLDKIESAFVARNGGVGQLVGNSSSSLGHLDHATPVYTRFVSDKKGSPAGMRVTMLSTPPNERMQLMPPDSRGARSDVLPQPVDPTDWVALAAPSRQEATPAVSPHNRWTNDDSIHAEKTPSVDATCFEALNNLMNDDDFQHSTLESVIPSYTQDDDSKQLQSQPNLGTYTKKNDIIHMGAPGSSQTQHFTKSLKVTYMDGRPQAVPIPDGPPDEPDKLGIDVNAQCKVLVEFKRKRVLQFESKEYVPPGSYVMVGGDRGEDLGLVTYTWCETTKSLKGELGEFGNGSNKTVVLCVGLTGSTLTRSIGLGAGTVLRLADDSDVKQLHTVQVELERRAIDVCSQRVLERGLPMTIVDAEYQFDKKKLTFFYEAQQRMDFRELVRDLYKSFRARIWMELVEN,not soluble
8,MARMYRALTRDIEVTVDPYYLEEQSDPDDDRYVWGYKVVIANNSDVPVKLVNRYWHITDQNGQVDEVYGPGVVGEQPQLKPGDSYEYSSGCPLDTPSGLMFGHYEMETENGEVFNVTIPAFSLDSPGLMRVLNAAALEHHHHHH,soluble
9,MAPGTKKKSDMAKFTFYKDRLMTFKNFEYDRDPDAKCTSQAVAQAGFYCTGPQSGKCAFCNKELDFDPEDDPWYEHTKRDEPCEFVRIGKLDDSELTINDTVRLSQTAMIMTKLFEHEMMINNLSNHSSSDALFDQLKKVPNTASTTKSNSRRGK,not soluble
10,MGKSIPVKTGLRGASAAVAGFIKSSKPIRPISSMDSSDKDSSSTTTTSETTRRFVPLSSVVSDCAKRWFKDTLEEAKAGNITMQVLLGQMYYSGYGVPKDARKVSSLFPPFQSLLFQVLGYNASDSDSESD,not soluble
11,GAAEKTVVNISKVDGMPWFNRMGEGVVQAGKEFNLNASQVGPSSTDAPQQVKIIEDLIARKVDAITIVPNDANVLEPVFKKARDAGIVVLTNESPGQPSANWDVEIIDNEKFAAEYVEHMAKRMGGKGGYVIYVGSLTVPQHNLWADLLVKYQKEHYPDMHEVTRRMPVAESVDDSRRTTLDLMKTYPDLKAVVSFGSNGPIGAGRAVKEKRAKNKVAVYGMMIPSQAASLIKSGDITEGITYDPATAGYALAAVASTLLNGKTIEPGFELKELGKAEVDSDKHIIRFHKVLLVNKDNIDSLY,soluble
12,MSYSWKKILIKPESTVVDALRVIDNEALRIALVVNDEQQLLGVVTDGDIRRGLLNNLPLETPVVDIMSRSPITASVNTAKEQLVKLMESKSILAVPLMEENKVVGLETLHHLFEEKTYHNPVFIMAGGFGTRLRPLTDTCPKPMLKIGNKPILETVIRSFIKAGFVNFYISTHYMPEQIQNHFGDGSELGVKISYVHEDSPLGTGGALGLLPDDLPQDLPLIMMNGDVLTKVDFERLLDFHTENQADATMCVREYDYQIPYGVINGKGNKITSMVEKPIQRFFVNAGIYVVSPSVIQSVPKNHHIDMPTLLEQHMNERDNILMFPIHEYWLDIGRMDDFNRAQADIHTLGLDLEHHHHHH,not soluble
13,MGSDKIHHHHHHMLTTPEMREQFRNDGVTIFRNCLNEAQLAQCYDGFKWDMANPGPHVYKGGLIGTTLHTHIDIANPEAKSELDDLAAALPFGQIFQELWDSKNVWYFAEEIFAKEGGKSGRGPWHQDTANLPWAGRHWGNAWISFQKLPKKNSLEIVRGSHLGIQYDGASFDSAEDPTDPLYGDGTYPRLPHIDNELARDPNSWDIVSFDINPGDIVLLHPRSLHGGAQVDADCPTRHTLVLRFFGDDATFRELPTCNPKYARNGPLFQKEMAKLNQGDAFRSPVFRQVAGV,not soluble
14,MSLQIAGKVVVVTGGGNGIGQALCEAFHKAGAAKVVVADLDQARAEAVAASIGGAAFKCDVANEADIKHVIEETERQFGPIDLFCSNAGIGGGFDPMAENAGGASDEPFMKSWMIHVMAHVYAARHLVPRYRARGGGYFLNTISAAGLLSQVGSPAYSATKHGAVGFAESLAIAHKAHNIRVSILCPQGVDTNMLRSIPKGPQSADGDLTAEQVAKDALQGIEQETFLILPHPQVIDYMRKKTEGHHHHHH,soluble
15,MGHHHHHHSHMSTKVPIYLKRGSRKGKKEKLRDLLSSDMISPPLGDFRHTIHIGSGGGSDMFGDISFLQGKFHLLPGTMVEGPEEDGTFDLPFQFTRTATVCGRELPDGPSPLLKNAISLPVIGGPQALTLPTAQAPPKPPRLHLETPQPSPQEGGSVDIWRIPETGSPNSGLTPESGAEEPFLSSASSLLSLHVDLGPSILDDVLQIMDQDLDSMQIPT,soluble
16,MKNDSFLDKVIGSLLSQNFQVDSNAYTYGLVKGKNDSFSGKVIDGIDVAKSILAIAQIFGSPIDSDCADFKTIFNGEGFKKDLKALYSMTDAVLYKFILGQPLIVGVVKADSLTHNEIYDITDKFDKAILGFRKYTARMKWTKCR,not soluble
17,MSLRAQSTNTIGVLVSRISNPFFAQLFDALERELNGYGFQVMVMQTHDDALAEQHFLDKLKQQQVDGVILASIENQQLVAQLSATYANQMVLLNEEATDIGIPMISLNHYQATKDALAYLYHQGHRRIAYATGGDFPSTHHGRSRTQAYLDFCEEQQLVVNNNWVFAQQHTIADGQALGKQLASLNPSDRPTAVFTNSDEVAVGVIDELQQQHFRVPDDMAVMGYDDQPFAAVAQVPLTTVRQPVAAMAQLAVDQLLHHLGRLQRPELAIDLSLDLIKRKSAEGHHHHHH,soluble
18,MGYLHIDGRGMKPNGGSRHNPLEAETIAAWLVAHKDDIERHYGEPLYKVVGVVTPFSAQVNAIKMSLRKLEINGKDEQGLLTVGTVHSLQGAERAIVLFSPVYSKHEDGRFLDSNSTILNVAVSRAKDSFLVFGDMDLIEMQPAFSPRGLLAKYLFSSDNNALQFEFQKRQDLISAHTQISTLHGVEQHDEFLNKTLAGAQKKITIISPWLSWQKVEQTGFLASMALARSRGIDITVVTDKNCNIAHVDDDKRQEKQHLLNDAVEKLNKMGIATKLVNRVHSKIVIEDEELLCVGSFNWFSATREDKYQRYDTSLVYRGEGVKNEIKAIYGSLDQRQLMGHHHHHHSH,not soluble
